One series has as its system influenza virus. To be noted: orally; cited from earlier work.
Series [1] relates to Punta Toro virus, Adames strain. Further details: species or system C57BL/6 mice. To be noted: mouse, in vivo.
For series [2] the following is noted: toxicity controls; 75 mg/kg/day i.p. bid x5.
For series [3] the following is noted: for tolerability in toxicity control animals: all surviving and losing no weight during therapy; for Tox Controls Surv/Total: uninfected, two treatments.
For series [4], the system named is Banzi virus (H336 strain). The experiment in a line: Banzi virus infection in mice (Example 7). To be noted: for Infected, treated MDD ± SD: mice dying before day 21; for weight loss: placebo 9.6%; for Average brain titer: placebo 6.9. The class given is in vivo, BALB/c mice.
The nature of series [5]: Uninfected toxicity controls (Example 7). The class given is in vivo, BALB/c mice. As to the method:
Experiment Design: Animals were injected i.p. with either 10^−3 dilution of Banzi virus stocks diluted in minimal essential media (MEM), or were sham-inoculated. This virus concentration had previously produced approximately 90% mortality in mice. Animals were treated with two doses of 10, 1, 0.1 μg/mouse of Barrogen or with drug vehicle (placebo group). The first dose was administered 4-6 h prior to virus inoculation. The second dose was given 48 h later. As a positive control a group of 15 infected mice were treated with a single dose of Ampligen® 24 h prior to virus inoculation at a dose of 1 mg/kg. Groups of 3 sham-inoculated animals used as toxicity controls were treated with identical compounds on identical schedules to the infected animals.

Series [6] relates to Punta Toro virus, Adames strain. More on the design: species or system C57BL/6 mice. As to conditions: mouse, in vivo. The source holds these as a separate data set.
Series [7] has as its system Banzi virus (H336 strain). The class given is in vivo, Balb/c mice. To be noted: for Infected, treated % survival (alive/total): 21 days; for Infected, treated % Mean wt. change: day 0 vs day 10.
The conditions of series [8]: every dose used.
For series [9] the following is noted: dosages used; no deaths or weight loss.
For series [10] the following is noted: dosages used; no deaths or weight loss. This is another data set of the same source.
The mark [11] stands for this setting: 0.1 μg/mouse/day i.p. 4-6 h pre-virus and 48 hr later.
Setting [12] is: 1 μg/mouse/day i.p. 4-6 h pre-virus and 48 hr later.
[13] abbreviates: 10 μg/mouse/day i.p. 4-6 h pre-virus and 48 hr later.
Setting [14] is: 0.1 μg/treatment i.p. −4 hpi and 2 dpi.
[15] abbreviates: 1 μg/treatment i.p. −4 hpi and 2 dpi.

The source of these data is patent US7550150B2, “Methods of treating or preventing a disease, disorder or condition associated with a viral infection” (Barros Research Institute, priority 2005, dated 2009).

Where “and” joins values, the source holds several entries; their conditions need not be identical. Equal entries are not always repeated. Where two headings read alike, the source gives them in different places. Marks after values point to notes of the source that are not given here.

`CCOC(=O)C1=C[C@@H](OC(CC)CC)[C@H](NC(C)=O)[C@@H](N)C1` [Oseltamivir]: the “doses down to which highly active against influenza virus infections in mice” value in the series with influenza virus was around 1 mg/kg/day.

With `NC(=O)c1ncn([C@@H]2O[C@H](CO)[C@@H](O)[C@H]2O)n1` [Ribavirin, reference compound], in series [1], the Liver virus entry was “not detectable”. Further, the “weight loss during the treatment period” value in series [2] is given as 0.8 g.

“GM-CSF: Granulocyte macrophage - colony stimulating factor”: in series [3], the “tolerability in toxicity control animals” value is “well tolerated”. In addition, the “Tox Controls Surv/Total” value in series [3] (20 ng i.p.) and in series [3] (200 ng i.p.) was 3/3 throughout.

Regarding “poly I · poly C12u [Ampligen, reference compound]”, the “Infected, treated Surv/Total” value in series [4] (1 mg/kg i.p. single dose 24 h pre-virus exposure) was 10/10 (100%)***. This molecule also showed a survival in [4] (1 mg/kg single dose 24 h prior, p<0.001) of 100%. Moreover, the “animals with virus detected in brain” value in series [4] (1 mg/kg, 8 dpi) is listed as 1 of the 5. Besides, the brain virus titer in [4] (1 mg/kg, 8 dpi, placebo 6.9 log10 CCID50/g of tissue) is 5.6. In series [4] (1 mg/kg, by 8 dpi), this molecule displayed an average weight gain of 1.9%. In series [5] (1 mg/kg i.p. single dose), the “Uninfected toxicity control Surv/Total” value is on record as 3/3 (100%).

B1: rBBX-01: Recombinant Apicomplexa-related protein (ARP) having the sequence of SEQ ID NO:20; termed Barrogen, also called rBBX-01 or E1 (protein, listed as Eimeria tenella)
chain: GEEADTQAWDTSVREWLVDTGRVFAGGVASIADGCRLFGAAVEGEGNAWEELVKTNYQIEVPQEDGTSISVDCDEAETLRQAVVDGRAPNGVYIGGTKYKLAEVKRDFTFNDQNYDVAILGKNKGGGFLIKTPNENVVIALYDEEKEQNKADALTTALNFAEYLYQGGF
For the molecule B1, the “mice protected (survival)” value in series [1] is 100%. In addition, in [1], the “reduction of serum viral load” value is “more than 2 logs”. The “serum ALT” value in series [1] and in series [6] was “markedly reduced” each time. Besides, the Hepatic icterus reduced in series [6] is reported as 17-43%. In addition, the “mice protected / cured” value in series [6] is listed as 100%. Also, in [6], the serum virus titers entry was “significantly reduced”. The “Mean Liver Score ± SD” value in [6] (ip) is 2.6 ± 0.2 and 2.7 ± 0.3 and 2.0 ± 0.6 and 2.9 ± 0.5. Also, the “Infected, treated Surv/Total” value in [4] (setting [11]) is 5/10 (50%)*; in series [4] (setting [12]), 7/10 (70%)***; in [4] (setting [13]) it was 4/10 (40%). The “Infected, treated MDD ± SD” value in series [4] (setting [11]) is reported as 8.4 ± 5.5; in series [4] (setting [12]), 14.3 ± 1.5; in [4] (setting [13]), 14.2 ± 3.5. Further, the “virus in the brains” value in [4] (0.1 μg/mouse, 8 dpi) is “No virus was detected”. In addition, the weight loss in series [4] (0.1 μg/mouse, 8 dpi) is 0.2%; in [4] (1 μg/mouse, 8 dpi), 0.5%; in series [4] (10 μg/mouse, 8 dpi), 1.3%. For the same molecule, the survival in series [4] (0.1 μg/mouse, placebo 10%, p<0.05) was found to be 50%; in series [4] (1 μg/mouse, placebo 10%, p<0.001) it was 70%; in series [4] (10 μg/mouse, not significantly higher than placebo) it was 40%. The “animals with virus detected in brain” value in series [4] (1 μg/mouse, 8 dpi) is on record as 2 out of 5; in series [4] (10 μg/mouse, 8 dpi), 2 out of 5. In addition, the Average brain titer in [4] (1 μg/mouse, 8 dpi) was found to be 4.6 log10 CCID50; in [4] (10 μg/mouse, 8 dpi) it was 2.8 log10 CCID50. Besides, the “Uninfected toxicity control Surv/Total” value in series [5] (0.1 μg/mouse/day i.p., two doses 48 h apart) is recorded as 3/3 (100%); in series [5] (1 μg/mouse/day i.p., two doses 48 h apart), 3/3 (100%); in [5] (10 μg/mouse/day i.p., two doses 48 h apart), 3/3 (100%). For the same molecule, the “Infected, treated % survival (alive/total)” value in [7] (setting [14]) and in [7] (setting [15]) was 47% (7/15)** in each case. For the same molecule, the “Infected, treated % Mean wt. change” value in [7] (setting [14]) was -1.4 g; in series [7] (setting [15]), -1.0 g. The mean-day-to-death result in series [7] (Barrogen-treated vs placebo-treated mice (FIG. 30)) was “significant increase”. In series [8], the “tolerability in toxicity control mice” value is “well tolerated”. For the same molecule, the “tolerability in toxicity controls” value in series [9] and in series [10] was “well tolerated” in each case. Besides, in [3], the “tolerability in toxicity control animals” value is “well tolerated”.
